# Reference: patent US20240400715A1 (VIBRANT PHARMA, published 2024)
# Where a chain is given by its changes, count along the chain named.
# T1: human CEA (CEACAM5) on tumor cells (human, UniProt P06731 35-702)
# T1 sequence (looked up): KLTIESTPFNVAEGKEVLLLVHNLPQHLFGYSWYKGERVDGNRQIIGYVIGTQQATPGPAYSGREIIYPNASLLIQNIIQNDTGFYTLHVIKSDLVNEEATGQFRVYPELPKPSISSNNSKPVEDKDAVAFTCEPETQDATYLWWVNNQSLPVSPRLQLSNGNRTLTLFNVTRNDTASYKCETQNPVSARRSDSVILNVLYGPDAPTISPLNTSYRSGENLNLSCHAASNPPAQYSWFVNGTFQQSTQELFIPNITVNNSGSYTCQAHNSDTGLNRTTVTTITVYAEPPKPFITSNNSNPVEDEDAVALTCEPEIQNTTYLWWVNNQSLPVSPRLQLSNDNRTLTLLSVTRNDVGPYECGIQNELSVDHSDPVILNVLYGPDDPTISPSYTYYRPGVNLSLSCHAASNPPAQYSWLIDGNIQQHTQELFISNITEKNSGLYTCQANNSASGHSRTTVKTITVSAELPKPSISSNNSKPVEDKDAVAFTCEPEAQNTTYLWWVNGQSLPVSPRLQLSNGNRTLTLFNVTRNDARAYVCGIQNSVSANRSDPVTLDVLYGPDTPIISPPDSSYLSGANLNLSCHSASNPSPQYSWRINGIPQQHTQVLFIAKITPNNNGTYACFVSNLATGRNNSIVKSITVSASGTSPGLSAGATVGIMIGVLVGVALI
# B1: bispecific antibody 101 (Fab-Knob+CEA-Hole) (bispecific antibody, human IgG4 S228P, kappa, F234A L235A)
# heavy: EVKLLESGGGLVQPKGSLKLSCAASGFTFNTYAMNWVRQAPGKGLEWVARIRSKYNNYATYYADSVKDRFTISRDDSQSILYLQMNNLKTEDTAMYYCVRHGNFGNSYVSWFAYWGQGTLVTVSSASTKGPSVFPLAPCSRSTSESTAALGCLVKDYFPEPVTVSWNSGALTSGVHTFPAVLQSSGLYSLSSVVTVPSSSLGTKTYTCNVDHKPSNTKVDKRVESKYGPPCPPCPAPEAAGGPSVFLFPPKPKDTLMISRTPEVTCVVVDVSQEDPEVQFNWYVDGVEVHNAKTKPREEQFNSTYRVVSVLTVLHQDWLNGKEYKCKVSNKGLPSSIEKTISKAKGQPREPQVYTLPPCQEEMTKNQVSLWCLVKGFYPSDIAVEWESNGQPENNYKTTPPVLDSDGSFFLYSRLTVDKSRWQEGNVFSCSVMHEALHNHYTQKSLSLSL
# chain: EVQLVESGGGFVQAGESLTLSCTSSTLTFTPYRMAWYRQAPGKQRDLVADISSGDGRTTNYADFAKGRFTISRDNIKNTVFLRMTNLKPEDTAVYYCNTFVSFVGIARSWGQGTQVTVSSESKYGPPCPPCPAPEAAGGPSVFLFPPKPKDTLMISRTPEVTCVVVDVSQEDPEVQFNWYVDGVEVHNAKTKPREEQFNSTYRVVSVLTVLHQDWLNGKEYKCKVSNKGLPSSIEKTISKAKGQPREPQVCTLPPSQEEMTKNQVSLSCAVKGFYPSDIAVEWESNGQPENNYKTTPPVLDSDGSFFLVSRLTVDKSRWQEGNVFSCSVMHEALHNRFTQKSLSLSL
# light: QAVVTQESALTTSPGETVTLTCRSSTGAVTTSNYANWVQEKPDHLFTGLIGGTNKRAPGVPARFSGSLIGDKAALTITGAQTEDEAIYFCALWYSNLWVFGGGTKVEIKRTVAAPSVFIFPPSDEQLKSGTASVVCLLNNFYPREAKVQWKVDNALQSGNSQESVTEQDSKDSTYSLSSTLTLSKADYEKHKVYACEVTHQGLSSPVTKSFNRGEC
# notes: Human IgG4 Fc with knob-into-hole, kappa light chain
# B2: EGFR-CD3 bispecific antibody 404 (bispecific antibody, human IgG4 S228P, kappa, F234A L235A)
# chain: QVQLQESGGGSVQAGGSLKLSCAASGRGFSRYAMGWFRQAPGQDREFVATISWTNSTDYADSVKGRFAISRDNAKNTAYLQMNSLKPEDTAVYYCAADKWASSTRSIDYDYWGQGIQVTVSSESKYGPPCPPCPAPEAAGGPSVFLFPPKPKDTLMISRTPEVTCVVVDVSQEDPEVQFNWYVDGVEVHNAKTKPREEQFNSTYRVVSVLTVLHQDWLNGKEYKCKVSNKGLPSSIEKTISKAKGQPREPQVYTLPPCQEEMTKNQVSLWCLVKGFYPSDIAVEWESNGQPENNYKTTPPVLDSDGSFFLYSRLTVDKSRWQEGNVFSCSVMHEALHNHYTQKSLSLSL
# heavy: B1 heavy with Y354C, C359S, W371S, L373A, Y412V, H440R, Y441F
# light: B1 light
# B3: HER2-CD3 bispecific antibody 501 (bispecific antibody, human IgG4 S228P, kappa, F234A L235A)
# heavy: B1 heavy
# chain: QVQLVQSGGGLVQAGGSLRLSCAASGRTFSSYAMAWFRQAPGKEREFVAAISWSGANIYVADSVKGRFTISRDNAKDTVYLQMNSLKPEDTAVYYCAVKLGFAPVEERQYDYWGQGTQVTVSSESKYGPPCPPCPAPEAAGGPSVFLFPPKPKDTLMISRTPEVTCVVVDVSQEDPEVQFNWYVDGVEVHNAKTKPREEQFNSTYRVVSVLTVLHQDWLNGKEYKCKVSNKGLPSSIEKTISKAKGQPREPQVCTLPPSQEEMTKNQVSLSCAVKGFYPSDIAVEWESNGQPENNYKTTPPVLDSDGSFFLVSRLTVDKSRWQEGNVFSCSVMHEALHNRFTQKSLSLSL
# light: B1 light
# B4: HER2-CD3 bispecific antibody 504 (bispecific antibody, human IgG4 S228P, kappa, F234A L235A)
# chain: B3 chain with C254Y, S259C, S271W, A273L, V312Y, R340H, F341Y
# heavy: B1 heavy with Y354C, C359S, W371S, L373A, Y412V, H440R, Y441F
# light: B1 light
# B5: bispecific antibody 104 (CEA-Knob+Fab-Hole) (bispecific antibody, human IgG4 S228P, kappa, F234A L235A)
# chain: B1 chain with C251Y, S256C, S268W, A270L, V309Y, R337H, F338Y
# heavy: B1 heavy with Y354C, C359S, W371S, L373A, Y412V, H440R, Y441F
# light: B1 light
# notes: as for B1
# Experiments:
# [1] = molecular target: T1, human CEA (CEACAM5) on tumor cells; assay: cell-based or functional assay
# [2] = molecular target: T2, Insulin (abs42019847); assay: ELISA, insulin coated on the plate, 100 nM antibody, anti-human IgG-HRP
# T2 construct: Coated on the plate in the polyspecificity ELISA
# Procedure: (§1) (1) Antigen coating: cardiolipin (Sigma, cat. C0563), keyhole limpet haemocyanin (KLH, Sigma, H8283), LPS (Sigma, L6529), ssDNA (Sigma, D8899), dsDNA (Sigma, D4522) and Insulin (abs42019847) were plated at 50 μg/mL, 5 μg/mL, 10 μg/mL, 1 μg/mL, 1 μg/mL, g/mL, and 50 μL per well, and incubated at 4° C. overnight;
# (§2) (4) 50 μl anti-human IgG-HRP conjugate (Sigma, AP113P, 1:8000 dilution) was added to each well; the plate was incubated for 1 h at room temperature and washed 6 times with 0.05% PBST;
# [3] = molecular target: the molecule itself; assay: BLI self-interaction: antibody captured on AHQ anti-human Fc sensor, free sites blocked with human IgG, same antibody in solution
# Procedure: The bispecific antibodies were diluted to 1 μM, and the proteins were coupled to the surface of the AHQ sensor chip in PBS, and the signal value was ˜0.8 nm. […] The experimental parameters are as follows: Baseline1: 60s, Loading: 180s, Loading response: 0.8 nm, Baseline2: 180s, Association: 240s, High sensitivity kinetics: 2 Hz.
# [4] = molecular target: T1, human CEA (CEACAM5) on tumor cells; assay: cell-based or functional assay; remark: listed apart in the source
# [5] = molecular target: T3, keyhole limpet haemocyanin (KLH, Sigma, H8283) (keyhole limpet, UniProt Q10583 17-3414; Q10584 20-3421, limits assumed); assay: ELISA, KLH coated at 5 ug/mL, 100 nM antibody, anti-human IgG-HRP
# T3 construct: Bought preparation coated on the plate in the polyspecificity ELISA
# Procedure: as §1, §2
# [6] = molecular target: T4, human EGFR on tumor cells (human, UniProt P00533 25-1210); assay: cell-based or functional assay
# [7] = molecular target: T4, human EGFR on tumor cells; assay: cell-based or functional assay; remark: listed apart in the source
# [8] = molecular target: T5, human HER2 on tumor cells (human, UniProt P04626 23-1255); assay: cell-based or functional assay
# [9] = molecular target: T6, recombinant tumor antigen human HER2 (ERBB2, ACRO systems, HE2-H5212) (human, UniProt P04626 23-652); assay: BLI (Octet RED96e), antibody captured on AHC anti-human Fc sensor, HER2 as analyte, 30 C, 1:1 fit
# T6 construct: Bought recombinant protein
# Source text: After the chip captures the bispecific antibodies, it was allowed to bind and dissociate with different concentrations of analytes to obtain the KD value of the interaction. The experimental parameters are as follows: Baseline1: 60s, Loading: 240s, Baseline2: 180s, Association: 240s, Dissociation: 600s, Loading Response: 1.9-2.1 (nm), High sensitivity kinetics: 2 Hz. Kinetic constants were derived based on 1:1 Langmuir binding to obtain equilibrium dissociation constants (KD).
# [10] = molecular target: T5, human HER2 on tumor cells; assay: cell-based or functional assay; remark: listed apart in the source
Binder,"EC50 of tumor cell killing, MCF-7 cells with human PBMC (E:T 10:1, 3 days, CCK8) [1]","EC50 of tumor cell killing, MDA-MB-453 cells with human PBMC (E:T 10:1, 3 days, CCK8) [1]","EC50 of tumor cell killing, N87 cells with human PBMC (E:T 10:1, 3 days, CCK8) [1]","Absorbance value (450 nm, polyspecificity ELISA) [2]",BLI-Response (self-interaction signal) [3],"EC50 of tumor cell killing, MDA-MB-468 cells with human PBMC (E:T 10:1, 3 days, CCK8) [4]","EC50 of tumor cell killing, NCI-H1573 cells with human PBMC (E:T 10:1, 3 days, CCK8) [4]","EC50 of tumor cell killing, SK-OV-3 cells with human PBMC (E:T 10:1, 3 days, CCK8) [4]","Absorbance value (450 nm, polyspecificity ELISA) [5]","EC50 of tumor cell killing, MCF-7 cells with human PBMC (E:T 10:1, 3 days, CCK8) [8]","EC50 of tumor cell killing, MDA-MB-453 cells with human PBMC (E:T 10:1, 3 days, CCK8) [8]","EC50 of tumor cell killing, N87 cells with human PBMC (E:T 10:1, 3 days, CCK8) [8]","EC50 of tumor cell killing, NCI-H157 cells with human PBMC (E:T 10:1, 3 days, CCK8) [8]","EC50 of tumor cell killing, NCI-H441 cells with human PBMC (E:T 10:1, 3 days, CCK8) [8]",Kd [9],koff [9],kon [9],"EC50 of tumor cell killing, MDA-MB-468 cells with human PBMC (E:T 10:1, 3 days, CCK8) [10]","EC50 of tumor cell killing, NCI-H1573 cells with human PBMC (E:T 10:1, 3 days, CCK8) [10]","EC50 of tumor cell killing, NCI-H1650 cells with human PBMC (E:T 10:1, 3 days, CCK8) [10]",further results
B1,8.01 nM,8.35 nM,0.2 nM,2.02,0.21 nm,1.16 nM,0.00287 nM,1 nM,1.05,–,–,–,–,–,–,–,–,–,–,–,–
B2,–,–,–,1.08,0.062 nm,–,–,–,1.06,–,–,–,–,–,–,–,–,–,–,–,"EC50 of tumor cell killing, MCF-7 cells with human PBMC (E:T 10:1, 3 days, CCK8) [6]: 0.084 nM; EC50 of tumor cell killing, N87 cells with human PBMC (E:T 10:1, 3 days, CCK8) [6]: 1.47 nM; EC50 of tumor cell killing, NCI-H157 cells with human PBMC (E:T 10:1, 3 days, CCK8) [6]: 17.7 nM; EC50 of tumor cell killing, NCI-H441 cells with human PBMC (E:T 10:1, 3 days, CCK8) [6]: 0.00908 nM; EC50 of tumor cell killing, MDA-MB-468 cells with human PBMC (E:T 10:1, 3 days, CCK8) [7]: 0.0158 pM; EC50 of tumor cell killing, NCI-H1573 cells with human PBMC (E:T 10:1, 3 days, CCK8) [7]: 0.00694 nM; EC50 of tumor cell killing, NCI-H1650 cells with human PBMC (E:T 10:1, 3 days, CCK8) [7]: 0.0677 nM; EC50 of tumor cell killing, NCI-H2228 cells with human PBMC (E:T 10:1, 3 days, CCK8) [7]: 0.0734 nM; EC50 of tumor cell killing, SK-OV-3 cells with human PBMC (E:T 10:1, 3 days, CCK8) [7]: 0.00995 nM"
B3,–,–,–,1.52,0.056 nm,–,–,–,1.45,8.29 nM,4.05 nM,1.32 nM,36.2 nM,0.152 nM,13.1 nM,0.00349 s⁻¹,266000 M⁻¹ s⁻¹,1.79 nM,0.0405 nM,1.59 nM,"EC50 of tumor cell killing, NCI-H2228 cells with human PBMC (E:T 10:1, 3 days, CCK8) [10]: 10.2 nM; EC50 of tumor cell killing, SK-OV-3 cells with human PBMC (E:T 10:1, 3 days, CCK8) [10]: 0.0198 nM"
B4,–,–,–,1.51,–,–,–,–,1.92,1.22 nM,4.06 nM,1.29 nM,10.8 nM,0.119 nM,18 nM,0.00413 s⁻¹,230000 M⁻¹ s⁻¹,0.332 nM,0.0378 nM,1.62 nM,"EC50 of tumor cell killing, NCI-H2228 cells with human PBMC (E:T 10:1, 3 days, CCK8) [10]: 2.43 nM; EC50 of tumor cell killing, SK-OV-3 cells with human PBMC (E:T 10:1, 3 days, CCK8) [10]: 0.01 nM"
B5,8.63 nM,1.96 nM,0.0972 nM,2.88,0.22 nm,0.672 nM,0.00384 nM,0.987 nM,1.08,–,–,–,–,–,–,–,–,–,–,–,–
